Results: patent US6448390

Biological target: amphotropic retrovirus receptor, endogenous on human 293 cells (human) (UniProt Q08357)
Assay: cell-based or functional assay

Chain of UniProt Q08357 (Q08357 whole entry): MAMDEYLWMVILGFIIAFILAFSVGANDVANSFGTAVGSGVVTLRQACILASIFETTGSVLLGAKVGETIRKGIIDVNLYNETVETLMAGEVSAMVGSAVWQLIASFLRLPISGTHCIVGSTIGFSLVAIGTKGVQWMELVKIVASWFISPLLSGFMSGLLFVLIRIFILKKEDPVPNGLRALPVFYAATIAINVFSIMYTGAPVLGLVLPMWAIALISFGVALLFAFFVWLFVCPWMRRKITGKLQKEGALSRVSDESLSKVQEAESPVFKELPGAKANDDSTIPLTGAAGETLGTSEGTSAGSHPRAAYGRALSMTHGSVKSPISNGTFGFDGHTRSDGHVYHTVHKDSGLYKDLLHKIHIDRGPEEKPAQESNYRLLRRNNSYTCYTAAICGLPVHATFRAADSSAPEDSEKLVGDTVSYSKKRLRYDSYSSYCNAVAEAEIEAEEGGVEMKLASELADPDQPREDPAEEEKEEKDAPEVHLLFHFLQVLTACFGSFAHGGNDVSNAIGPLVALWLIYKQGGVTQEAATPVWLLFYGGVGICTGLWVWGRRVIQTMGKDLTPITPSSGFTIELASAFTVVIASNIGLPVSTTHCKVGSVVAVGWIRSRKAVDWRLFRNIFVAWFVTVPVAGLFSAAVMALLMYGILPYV

## ampho/eco+Q227R/D243Y fusion envelope protein: residues 1-208 of amphotropic 4070A envelope protein fused between Serine 6 and Proline 7 of MoMLV mutant envelope protein Q227R/D243Y
  delivery of the lacZ gene (infectious titer) to human 293 cells expressing the amphotropic receptor but not the ecotropic receptor: 1000 fold
